The record followed here is US20210230254A1.

The target in experiment [1] is 2CC-core (HIV-1 YU2) (UniProt P35961). The experiment is described as follows: SPR, 2CC-core on chip, IgG injected. Background: Surface plasmon resonance follows binding to a sensor surface in real time, without labels.
Experiment [2] shares this target.

pKd: −log10 of the molar value. Read-outs that look alike come from different tables or passages of the source.

Sequence of 8ANC195 (antibody) (V domain): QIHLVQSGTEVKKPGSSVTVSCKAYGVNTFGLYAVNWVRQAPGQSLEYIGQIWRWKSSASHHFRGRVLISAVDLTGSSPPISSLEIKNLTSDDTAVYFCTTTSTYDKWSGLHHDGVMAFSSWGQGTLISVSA
Sequence of 8ANC195 (antibody) (VL): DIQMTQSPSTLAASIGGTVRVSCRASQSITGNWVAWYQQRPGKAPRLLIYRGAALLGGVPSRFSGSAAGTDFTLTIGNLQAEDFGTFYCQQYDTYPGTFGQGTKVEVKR
Sequence of 12A12 (antibody) (VH): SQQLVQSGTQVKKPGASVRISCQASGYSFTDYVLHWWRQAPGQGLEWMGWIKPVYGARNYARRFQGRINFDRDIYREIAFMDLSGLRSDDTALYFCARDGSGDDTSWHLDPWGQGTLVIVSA
Sequence of 12A12 (antibody) (VL): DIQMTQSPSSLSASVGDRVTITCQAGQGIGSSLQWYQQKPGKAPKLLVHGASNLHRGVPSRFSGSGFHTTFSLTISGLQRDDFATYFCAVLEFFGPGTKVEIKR
Sequence of 3BNC117 (antibody) (VH): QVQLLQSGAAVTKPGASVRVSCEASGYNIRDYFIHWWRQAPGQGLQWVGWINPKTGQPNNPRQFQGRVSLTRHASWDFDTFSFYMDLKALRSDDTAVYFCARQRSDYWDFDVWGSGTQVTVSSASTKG
Sequence of 3BNC117 (antibody) (VL): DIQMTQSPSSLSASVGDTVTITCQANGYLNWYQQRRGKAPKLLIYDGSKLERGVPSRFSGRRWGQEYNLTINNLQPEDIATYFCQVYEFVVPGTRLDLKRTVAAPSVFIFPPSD
Sequence of NIH45-46 (antibody) (VH): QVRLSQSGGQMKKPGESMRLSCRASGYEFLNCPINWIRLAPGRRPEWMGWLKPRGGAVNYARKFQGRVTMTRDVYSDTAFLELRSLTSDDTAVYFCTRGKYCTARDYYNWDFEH
Sequence of NIH45-46 (antibody) (VL): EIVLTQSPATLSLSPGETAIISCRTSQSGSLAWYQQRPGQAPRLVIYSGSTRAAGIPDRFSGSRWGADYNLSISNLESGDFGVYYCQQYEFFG
Sequence of 3BNC66 (antibody) (V domain): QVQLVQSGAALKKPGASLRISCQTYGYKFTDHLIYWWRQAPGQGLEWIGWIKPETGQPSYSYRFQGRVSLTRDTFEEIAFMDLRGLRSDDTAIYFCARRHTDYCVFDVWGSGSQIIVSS
Sequence of 3BNC66 (antibody) (VL): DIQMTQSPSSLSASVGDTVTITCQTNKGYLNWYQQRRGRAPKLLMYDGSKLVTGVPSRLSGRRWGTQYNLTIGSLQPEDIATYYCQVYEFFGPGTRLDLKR
Sequence of 3BNC60 (antibody) (VH): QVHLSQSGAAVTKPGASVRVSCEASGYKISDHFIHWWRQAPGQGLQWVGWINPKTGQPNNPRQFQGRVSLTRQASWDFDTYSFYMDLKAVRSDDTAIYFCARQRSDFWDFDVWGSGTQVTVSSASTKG
Sequence of 3BNC60 (antibody) (VL): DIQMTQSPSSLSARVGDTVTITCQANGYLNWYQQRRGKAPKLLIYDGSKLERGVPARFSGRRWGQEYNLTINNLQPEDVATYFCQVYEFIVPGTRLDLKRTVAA
Sequence of 3BNC55 (antibody) (V domain): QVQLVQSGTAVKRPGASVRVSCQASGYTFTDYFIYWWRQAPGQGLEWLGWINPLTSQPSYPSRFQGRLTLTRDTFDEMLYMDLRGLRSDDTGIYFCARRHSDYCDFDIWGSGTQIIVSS
Sequence of 3BNC55 (antibody) (VL): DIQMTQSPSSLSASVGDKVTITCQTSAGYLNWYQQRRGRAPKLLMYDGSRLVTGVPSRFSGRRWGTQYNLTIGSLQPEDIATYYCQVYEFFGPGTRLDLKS
Sequence of 12A21 (antibody) (VH): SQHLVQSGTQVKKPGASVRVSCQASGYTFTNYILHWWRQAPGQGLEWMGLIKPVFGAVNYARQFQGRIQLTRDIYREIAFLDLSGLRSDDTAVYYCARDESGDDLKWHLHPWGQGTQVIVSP
Sequence of 12A21 (antibody) (VL): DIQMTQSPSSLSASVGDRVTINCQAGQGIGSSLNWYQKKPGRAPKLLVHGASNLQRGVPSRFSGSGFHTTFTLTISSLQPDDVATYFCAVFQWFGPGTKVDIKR
Sequence of 3BNC156 (antibody) (VH): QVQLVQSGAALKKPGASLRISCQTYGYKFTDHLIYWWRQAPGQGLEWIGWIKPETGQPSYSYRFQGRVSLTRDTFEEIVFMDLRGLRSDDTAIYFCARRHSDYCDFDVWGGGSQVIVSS
Sequence of 3BNC156 (antibody) (VL): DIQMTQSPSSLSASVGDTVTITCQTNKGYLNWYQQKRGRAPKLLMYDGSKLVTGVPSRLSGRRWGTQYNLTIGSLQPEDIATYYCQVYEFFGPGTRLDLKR

In general, pKd refers to the Kd on a negative log10 scale, so that one unit is a factor of ten. Usually koff stands for a measure of how fast the partners let go of each other. Low readings indicate slow dissociation, high ones fast dissociation. A word on the kon: it is the rate constant with which the complex forms. In the experiment with 2CC-core (HIV-1 YU2) [1], 8ANC195 (antibody) gave a negative-log Kd (pKd) of 7.26, a koff of 0.00132 s⁻¹ and a kon of 24100 M⁻¹ s⁻¹.
3BNC117 (antibody): the pKd in the experiment with 2CC-core (HIV-1 YU2) [1] is 7.43. In the experiment with 2CC-core (HIV-1 YU2) [2], this substance yielded a koff of 0.00149 s⁻¹ and a kon of 40500 M⁻¹ s⁻¹.
For 1B2530 (antibody), in the experiment with 2CC-core (HIV-1 YU2) [1], the pKd is 8.23, the koff is 0.000402 s⁻¹ and the kon is 68300 M⁻¹ s⁻¹.
Consider 8ANC134 (antibody), for which, in the experiment with 2CC-core (HIV-1 YU2) [1], the pKd is 7.34, the koff came to 0.000957 s⁻¹ and the association rate constant (kon) was found to be 20800 M⁻¹ s⁻¹.
For 12A21 (antibody), in the experiment with 2CC-core (HIV-1 YU2) [1], the pKd was 8.74, the off-rate (koff) is 0.00033 s⁻¹ and the kon is 182000 M⁻¹ s⁻¹.
In the experiment with 2CC-core (HIV-1 YU2) [1], 3BNC66 (antibody) had a pKd of 7.47, a koff of 0.00133 s⁻¹ and a kon of 39600 M⁻¹ s⁻¹.
For 12A12 (antibody) the same measures were 10.57, 1.7e-06 s⁻¹ and 63300 M⁻¹ s⁻¹.
In the experiment with 2CC-core (HIV-1 YU2) [1], NIH45-46 (antibody) gave a pKd of 8.36, a koff of 0.000494 s⁻¹ and a kon of 112000 M⁻¹ s⁻¹.
Regarding 3BNC156 (antibody), in the experiment with 2CC-core (HIV-1 YU2) [1], the negative-log Kd (pKd) is 7.09, the koff was 0.00153 s⁻¹ and the kon is 18800 M⁻¹ s⁻¹.
In the experiment with 2CC-core (HIV-1 YU2) [1], 1NC9 (antibody) showed a negative logarithm of the Kd (pKd) of 8.34, a koff of 0.000236 s⁻¹ and a kon of 51100 M⁻¹ s⁻¹.
With 3BNC55 (antibody), the pKd with 2CC-core (HIV-1 YU2) [1] was 7.59. In the experiment with 2CC-core (HIV-1 YU2) [2], this substance came in with a koff of 0.000815 s⁻¹ and a kon of 31600 M⁻¹ s⁻¹.
With 3BNC60 (antibody), in the experiment with 2CC-core (HIV-1 YU2) [1], the pKd is 7.26, the koff amounted to 0.00164 s⁻¹ and the kon was 30200 M⁻¹ s⁻¹.
The like results for 8ANC131 (antibody) were, in that order, 7.18, 0.00323 s⁻¹ and 48800 M⁻¹ s⁻¹.
